Assay results published in paper PMC9012456 (Science Advances, 2022).
Where a chain is given by its changes, count along the chain named. Names and notes keep the numbering of the source.

B1: KaiB (natural protein)
chain: MSPRKTYILKLYVAGNTPNSVRALKTLKNILEVEFQGVYALKVIDVLKNPQLAEEDKILATPTLAKVLPLPVRRIIGDLSDREKVLIGLDLLYGELQDSDDF
B2: KaiA (natural protein)
chain: MLSQIAICIWVESTAILQDCQRALSADRYQLQVCESGEMLLEYAQTHRDQIDCLILVAANPSFRAVVQQLCFEGVVVPAIVVGDRDSEDPDEPAKEQLYHSAELHLGIHQLEQLPYQVDAALAEFLRLAPVETMADHIMLMGANHDPELSSQQRDLAQRLQERLGYLGVYYKRDPDRFLRNLPAYESQKLHQAMQTSYREIVLSYFSPNSNLNQSIDNFVNMAFFADVPVTKVVEIHMELMDEFAKKLRVEGRSEDILLDYRLTLIDVIAHLCEMYRRSIPRET
B3: KaiC-pSpT (KaiC fully phosphorylated at S431 and T432) (natural protein)
chain: MTSAEMTSPNNNSEHQAIAKMRTMIEGFDDISHGGLPIGRSTLVSGTSGTGKTLFSIQFLYNGIIEFDEPGVFVTFEETPQDIIKNARSFGWDLAKLVDEGKLFILDASPDPEGQEVVGGFDLSALIERINYAIQKYRARRVSIDSVTSVFQQYDASSVVRRELFRLVARLKQIGATTVMTTERIEEYGPIARYGVEEFVSDNVVILRNVLEGERRRRTLEILKLRGTSHMKGEYPFTITDHGINIFPLGAMRLTQRSSNVRVSSGVVRLDEMCGGGFFKDSIILATGATGTGKTLLVSRFVENACANKERAILFAYEESRAQLLRNAYSWGMDFEEMERQNLLKIVCAYPESAGLEDHLQIIKSEINDFKPARIAIDSLSALARGVSNNAFRQFVIGVTGYAKQEEITGLFTNTSDQFMGAHSITDSHISTITDTIILLQYVEIRGEMSRAINVFKMRGSWHDKAIREFMISDKGPDIKDSFRNFERIISGSPTRITVDEKSELSRIVRGVQEKGPES
modifications: phosphorylated S431 (pS431), phosphorylated T432 (pT432)
B4: KaiC T432V mutant (KaiC-SV) (natural protein)
chain: B3 chain with T432V
B5: KaiC-pST (KaiC phosphorylated at S431 only) (natural protein)
chain: B3 chain
modifications: phosphorylated S431 (pS431)

Columns and labels:
[1] = biological target: B4; assay: SEC-MALS
crystal structure = biological target: the molecule itself; assay: crystal structure

binding result [1] | Binder | stoichiometry N (crystal structure) | further results
binds | B1 | – | –
binds | B2 | – | –
– | B3 | 6 | –
– | B4 | – | binding result (crystal structure): binds
– | B5 | 6 | –
